The record followed here is patent publication US20130089497A1 (Genentech, published 2013).

The target in this test is T1, gD tagged human FcRH6 on SVT2 cells (human, UniProt Q6DN72 20-434).
T1 construct: whole, on cells; also called huFcRH6; not shown: gD tag; the construct for this FcRH is not described
T1 sequence (looked up): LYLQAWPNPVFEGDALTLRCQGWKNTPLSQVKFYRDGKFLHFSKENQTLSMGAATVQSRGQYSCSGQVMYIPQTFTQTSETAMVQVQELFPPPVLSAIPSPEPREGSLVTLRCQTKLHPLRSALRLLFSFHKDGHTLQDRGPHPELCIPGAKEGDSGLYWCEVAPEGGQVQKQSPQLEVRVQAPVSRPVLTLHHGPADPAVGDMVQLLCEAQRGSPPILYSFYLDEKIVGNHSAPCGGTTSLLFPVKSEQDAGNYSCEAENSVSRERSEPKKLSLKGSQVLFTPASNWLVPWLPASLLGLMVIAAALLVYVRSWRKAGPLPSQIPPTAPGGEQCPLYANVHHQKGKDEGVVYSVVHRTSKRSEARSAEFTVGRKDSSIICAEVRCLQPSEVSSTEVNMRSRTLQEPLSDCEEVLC
In words: FACS, SVT2.MSCV.gD.FcRH6 cells, PE secondary antibody. (In general: Flow cytometry measures light scatter and fluorescence of single cells or particles in a stream.)

B1: murine monoclonal antibody anti-FcRH5-13G9 (antibody, V domains shown)
VH: EVQLVQSGPELKKPGETVKISCKASGYTFTNYGMNWVKQAPGKGLKWMGWVNTYTGEPTYTDDFKGRFAFSVETSASTVFLQINNLKNEDTATYFCARRSIPYYYAMDYWGQGTSLT
VL: DIVMTQSQKIMSTSVGDRVNVTCKASQNVGSNVAWYHQKPGQSPKALIYSASYRYSGVPDRFTGSGSGTDFTLTISNVQSEDLAEYFCQQYKTWTFGGGTKLEIKR
notes: Whole murine IgG from hybridoma; also called 13G9.1.1; mu13G9
For B1, the binding result is recorded as “no binding (tested: 1.0 ug per about 10^6 cells (p-1120))”.
